Measured values from US20250215105A1 (published 2025).
Substitutions are numbered along the chain they refer to. Where two headings read alike, the source gives them in different places. One block for each binder: values may come before it.

Tests used:
[1] = molecular target: T1, human CD39 recombinant antigen (UniProt P49961 38-478); assay: SPR
T1 chain: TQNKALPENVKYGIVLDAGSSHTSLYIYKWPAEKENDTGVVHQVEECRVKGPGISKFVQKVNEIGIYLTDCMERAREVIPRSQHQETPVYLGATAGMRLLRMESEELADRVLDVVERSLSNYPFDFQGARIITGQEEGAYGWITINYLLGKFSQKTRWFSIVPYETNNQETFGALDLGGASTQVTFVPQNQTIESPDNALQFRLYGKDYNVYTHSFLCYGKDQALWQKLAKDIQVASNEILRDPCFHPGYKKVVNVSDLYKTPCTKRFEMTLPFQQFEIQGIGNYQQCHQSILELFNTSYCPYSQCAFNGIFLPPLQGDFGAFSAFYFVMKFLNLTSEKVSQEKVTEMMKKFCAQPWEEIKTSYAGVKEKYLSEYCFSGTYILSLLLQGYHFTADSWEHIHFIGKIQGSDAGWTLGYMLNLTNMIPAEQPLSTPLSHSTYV

[2] = molecular target: T1, human CD39 recombinant antigen; assay: SPR

Kd [1]: 0.396 nM
B1: HuP4_IB_sc (Fc fusion)
VH: QVQLLESGPELVKPSATLSITCTVSGFSLTNYGVHWIRQAPGKGLEWLGVILRRGSTDYNAAFMSRFTISKDNSKNQVYFKLRSVTAEDTAVYYCAKTAVVAGDYFDYWGQGTMVTVSS
VL: DIQMTQSHSTLSLSVGDRVTITCKASQNVGTNVAWYQQKPGQPPKALIYSASYRYSGVPSRFSGSGSGTDFTLTISSVQAEDVAVYYCQQYNSYPLTFGPGTKLEIK

Kd [2]: 0.399 nM
B2: 6-3m1 (antibody, V domains shown)
VH: QVQLKQSGAELVKPGASVKLSCTASGFSIKDTYVHWVKQRPEQGLEWIGKIDPANVNTKFDPKFQGKATITADTSSNTAYLQLSSLTSEDTAVYYCALYGYDDDAYYFDYWGQGTTLTVSS
VL: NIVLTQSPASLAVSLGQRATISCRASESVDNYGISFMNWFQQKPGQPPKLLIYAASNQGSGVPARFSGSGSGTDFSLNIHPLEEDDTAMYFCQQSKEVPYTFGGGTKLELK

Kd [2]: 9.83 nM
B3: T-31414h4 (antibody, V domains shown)
VH: QVQLVQSGAEVKKPGASVKVSCKASGYTFKSYEMHWVRQAPGQGLEWMGRINPSVGSTWYAQKFQGRVIMIRDTSTSTVYMELSSLRSEDTAVYYCARGKREGGTEYLRNWGQGTLVTVSS
VL: EIVLIQSPGILSLSPGERATLSCRASQSVSSSYLAWYQQKPGQAPRLLIYGASSRATGIPDRFSGSGSGTDFTLTISRLEPEDFAVYYCQQYHSYITFGGGTKVEIK

Kd [1]: 4.28 nM
B4: T86_sc (antibody, V domains shown)
VH: QIQLVQSGPELKKPGETVKISCEASGYTFINYGMNWVKQAPGKGLKWMGWINTYTGEPTYADDFKGRFAFSLETSANTAYLQINNLKNEDTATYFCARKGYYGYPNYYAMDYWGQGTSVTVSS
VL: DIVMTQSQKFMSTSVGDRVSITCKASQNVGTAVAWYQQKPGQSPKLLIYSASNRYTGVPDRFTGSGSGTDFTLTISNMQSEDLADYFCQQYSSYPITFGTGTKLEIK

Kd [2]: 0.573 nM
B5: 23-7m1 (antibody, V domains shown)
VH: EVQLQQSGPELEKPGASVKISCKVSGYSFTDYNLNWVKQYNGKNLEWIGNIDPYSGGTRYNQKFKGKATLTIDQSSSTAYMHLKSLTSEDSAVYYCGLYGYDDDANYFDDWGQGTTLTVSS
VL: EIVLTQSPAIMSPSPGEKVTIACSASSSVSYMHWFQQKPGTSPKLWIYATSNLASGVPARFSGSGSGTSYSLTISRMEAEDVATYYCQQRSSYPLTFGAGTKLELK

Kd [1]: 2.22 nM
B6: Tre_291_sc (antibody, V domains shown)
VH: QVQLKQSGPGLVQPSQSLSITCTVSGFSLTSYGVHWVRQSPGKGLEWLGVIWRRGSTDYNAAFMSRLSITKDTSKSQVFFKMNSLQTDDTAIYYCAGVRGDAMDYWGQGTSVTVSS
VL: DIVMTQSHKSMSTSVGDRVSVTCKASQNVGTNVAWYQQKPGQSPKALIYSASYRYSGVPDRFTGSGSGTDFTLTISNVQSEDLAEYFCQQYNSYPLTFGGGTKLEIK

Kd [1]: 0.307 nM
B7: P4_sc (Fc fusion)
VH: QVQLKESGPSLVQPSQSLSITCTVSGFSLTNYGVHWVRQSPGKGLEWLGVILRRGSTDYNAAFMSRLSITKDNSKSQVFFKMNSLQADDTAIYYCAKTAVVAGDYFDYWGQGTTLTVSS
VL: B6 VL with S10F, G100T

Kd [1]: 4.75 nM
B8: mAnE67_sc (antibody, V domains shown)
VH: EVQLVESGGGLVKPGGSRKLSCAASGFTFSDYGMHWVRQAPEKGLEWVAYISSGSSIIYYADTVKGRFTISRDNAKNTLFLQMTGLRSEDTAMYYCARKDYPYAMDYWGQGTSLAVSS
VL: B6 VL

Kd [1]: 0.369 nM
B9: HuP4_51_sc (antibody, V domains shown)
VH: QVQLVESGGGVVQPGGSLRLSCVVSGFSLTNYGVHWVRQAPGKGLEWLGVILRRGSTDYNAAFMSRLAISKDNSKNTVYLELNSLRLDDTAVYYCAKTAVVAGDYFDYWGQGTTVTVSS
VL: B6 VL with H8Q, S10F, V21I, A46L, V78M, E85D

Kd [1]: 1.65 nM
B10: I67_sc (antibody, V domains shown)
VH: DVQLQESGPSLVQPSQSLSINCTVSGFSLSSYGVHWVRQSPGKGLEWLGVIWRRGSTDYNAAFMSRLSITKDNSKSQVFFKMNRLQADDTATYYCAKGISTATSWFAYWGQGTLVTVSA
VL: B6 VL with S10F, G100A, I106L

Kd [1]: 0.377 nM
B11: HuP4_11_sc (antibody, V domains shown)
VH: EVQLVESGGALVQPGRSLRLSCAVSGFTLSNYGVHWVRQAPGKGLEWVAVILRRGSTDYNAAFMSRFTISKDNSKNTVYLQMNSLRADDTAVYYCAKTAVVAGDYFDYWGQGTTVTVSS
VL: B6 VL with H8Q, S10F, V21I, A46L, V78M, E85D

Kd [1]: 0.106 nM
B12: HuP4_41_sc (antibody, V domains shown)
VH: B9 VH with S28T, G49A
VL: B6 VL with H8Q, S10F, V21I, A46L, V78M, E85D

Kd [2]: 0.956 nM
B13: I-394h4 (antibody, V domains shown)
VH: EVQLQQSGPELVKPGASVKMSCKASGYTFTDYNMHWVKQSHGRTLEWIGYIVPLNGGSTFNQKFKGRATLTVNTSSRTAYMELRSLTSEDSAAYYCARGGTRFAYWGQGTLVTVSA
VL: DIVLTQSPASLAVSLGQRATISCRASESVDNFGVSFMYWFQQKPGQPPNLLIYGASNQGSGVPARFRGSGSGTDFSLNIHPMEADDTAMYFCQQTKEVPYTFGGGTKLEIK
